Test results: the DeepSol protein solubility set

Test: soluble on expression in E. coli; label from the status in PepcDB or PDB records

Sequence	soluble on expression in E. coli
MGSDKIHHHHHHMQLEELINQHYSKLNDNDFHILKYILNHKHTCYHLGIDALAKACSVSRSSILRLAQKLGFSGYSEFRVFLKWEDQPEEGESMSFEKLLDDIEANLKFLRTKDMTDMCQLIDAADRIFVYGSGNAQKICARDLQRMFIPRHRYLILIEDTNEFNLMRDDFKVNDLFIIISLSGETPELIPQARMLSAKGIPFISITNLKNNVLAQLTPHNLYATSKPVTLSDRTEIVAFAPFFLVGEALFRAYVDYKEAEKNDNE	not soluble
MGSDKIHHHHHHMQLIPLAERMRPVLLQDVYGQQHLIGEGMVFRRFVEEGKIPSMILWGPPGVGKTTLAQLLAKTVGLPFYTLSAISSGVKEVREVIANAQTDGKAVLFIDEIHRFSKSQQDALLGAVEKGTIQLIGATTENPSFEVIPALLSRCQVYVLQPLSEEELVELMRSALKKDAYLKTRSVEIKEHDSLLRLSGGDARKLLNLLELVIDASGKDPIVITDAYVQKIAQKKVASYDKNGEMHYDIISAFIKSVRGSDPNAAVYWLARMIEGGEDVEFIARRLLILASEDVGNANPTALVMATTAFDAVRFIGWPESRIILSQVTTYLASSPKSNASYMAINEAQQLVRSHGDLPVPIHLRNAPTKLMKDLDYGKEYKYAHSYEANFVEQEYMPDKLAGKKIFDPGNNAREQELRTFLQKRWKEKYKY	not soluble
MGSDKIHHHHHHMQLNPSLIPHSSEQHVDWEKALHGGNDALLTQLAADDDPAAALLELESYINGIYRGSPSPLSKPLPDIRLEVRRALPYVDEIRDRLGWQVRDFDLGLLRLIRGSSTLSPVLGAGVSMDAGAPSWPELVRLMLEETLDKGLEFYESVPAADNPAQPPIEFLPDGTVRTGGTGTWRFEQRVSEVKRYTAEQEQTARNVLAEVKAKGSSTDVETLMHGAQVCYDLCGQHLFRLLTKIIYTRAKEPSEVHRVIAELAQAQEVPVRGPGLFPGWDSIITYNIDALMSEALAEQKIPHAAWAMKGDKLRGNPDELAQKSSWHEPIFHLHGFSPRRLFMITNVRFVFSTSQYLTTYKGPRSRILEAVYDEFLANPVRIALYIGCSFADEAMNGLLREAFAEYPGRYHYALLKWPRDRKGKEPDRSEIAAESAKYLEFGVRPIWFDDFAELPGLIRQLQ	not soluble
MGSDKIHHHHHHMQMKQVLLEARQDFLSLLKRRGWKEKDLNILRGIFLGELSRVDVPADIFELAIKEAVKGNLKLSSKLLGVSEIDTLEILFWYLPKKYPLPSERLKKRLKAESVKEFIEEANRLRVKLGKKDFMELYLHLEEAEEEEEKRENTDLLERVRNLSIEKLSESEIEELRYFYSLLDLRGKESVRTLNVHPYILSAIIRNPSAPIVIDGSNLLWRGGLSVSYIYEVFERLAVFREFFFPYRIVFDRNAEFVLPVHERKGFERWKNSPNVLFESPADGLIISLANTMDAVVLSGDRFRDHGLPRRVRVLTPEEIEKG	not soluble
MGSDKIHHHHHHMQNFVLTVSCKSTRGVVAALSGYLAEQGCNIADSSQFDDLDTGKFFMRTSFISEERVGLAALEEGLKPIASKFEMETALHEQSERMKVLLMVSRFGHCLNDLLYRWKIGALPIDIVGVVSNHFDYQKVVVNHDIPFHHIKVTKENKPKAEAQLMDVVEQTGAELIVLARYMQVLSDALCKKMSGKIINIHHSFLPSFKGANPYKQAYERGVKLIGATAHYVTADLDEGPIIEQDIARITHAQSAEDYVSIGRDVESQVLARAVHAHIHHRCFINGNRVVVFPPSPGSYASERMG	not soluble
MGSDKIHHHHHHMQNIIIEARVNELATRIGNPHVPFLPAEVIADAKACHDAGASIFHFHGRNEDGTPSHDPNFYLETNAGIRAQSDILIHPTLGYVANDTDAKGRFAAIEQMMQSAETAPDFAPMDTGSVNVDWWNPDEGKYDTTELIYKNSTGTLMYFADRIRHYNLTPYLVSWNVSFTRQIEQFLKMGVLDAPAYICFCMTDEIIFAGHPGTEAGLDAHTAFLPPEFETVWTVVNYKGDLFQLTEKIIRTGGHISIGLGDYAYMDGSRHMTNAEVIAKVADQARRLGREPASVAETREILNMKTPRIAA	not soluble
MGSDKIHHHHHHMQNPFTTTFSKTPEYTYIHTEKTEEILENFIYDNPSESVYKITGVRGSGKTVILAKVEEELRTNESRYINWLVFDVNPARDILGQIAAMLVKAGFGSQDKKTTGINLSATVMGTGGGIGYTAENNNNFFDIGVEVETMIQAAQKKGKKILIGIDEVSKSEEMIKFASEYGRWLRAGYPVYFVCTGLYENIQELSNVKNLTFFRRAATVKTEPLNMIRMTEMYKSKLDIDSNEAREMAKITKGYAYAFQELGVLYFKKKLDELLEDILPKLKAELFAYSYEKIWEEMTEMDRFLAGLLTEKEEYKREEVLKLMGEKSGSYSMYRDRLIKRGILNSRQGYISLALPYFGEYIKEYC	not soluble
MGSDKIHHHHHHMQNVIENFKQLCKIPHCSYETEQMKEFLSSYAKDKGFKVSVDKAGNIHAIKGKPKICLQSHYDMVCMGDAPNLEVYEENGFLRAKNSSLGADNGIGIAIMMSAMAEFENLECLFTNDEEVGLMGVNLLEHTLESKMLLNLDHESDDEIMIGCAGGVDIEASLSFNTLRKKGKIYELCAQNFKGGHSGINIIRNEKSSIKEMAKFIQENEGEIISFEGGERINSIPKHAKALVHFKDEVKSNNWIKCEFKEENEFEICDQSKKLLSLINSFTHGVRAYDENLDIVQTSINLATLRMQDNQIKFALFARSNILDGLKQVEFETLEFFKAFDFKIRSFNFYPPWEGKPNALSDMVFKALKKVSPNAKVSAIHAGLECGIIEKKQELLCASIGPNIHNPHSTDEHCEIASVEKISKVVFEVLKDNA	not soluble
MGSDKIHHHHHHMQQLFVQLLEERYFNRLPEALVLKFATESADFVRFWLVHCMRSMVSERELAIALFFSAEWELEELASLKSFWGSYVAMEEAQEVKATFCHFVPWLKTISPHHEDAICVFSALWFFEHRPTSVGKQLQSATLSHSQLPVSLLDDIKLFSLPHLRPITVYGHQGKGSVESGIRNNMHYPTPIPNDNLAMACVERVIAKFAGIKLAFAEPIVVLRYEPGQFYQWHYDAIHAYTAEIQAELERFGQRSRTAILYLNDDFEGGETEFKAPYIQVKPETAAILVFDNTDQTGKPIPSSLHRGCEVTAGKKWVCTQWFRDKPFWLRAGLLA	not soluble
MGSDKIHHHHHHMQRFKKWFLSIIKNFKQHEKIKIDLNNTKIDLNNTKIDLNNTKIDLNNTKIDLNNTKIDLNNTKIDLNNTKIDLNNTKIDLNNTKIELSQLKKEHYKVLDFHLRKITPQAFLEIVEIHLAESCNLNCFGCNHFSQIAEKEFPDIEIFKKDMQRLSEISKGIVGTFRLMGGEPLLNPNCIQFFDITRYFFPKSAIWLVTNGILLDKQNEDFWNSCQRNKMQIRPTKYPIKINWDLIKDKCDQYDIPLIFFNNGELEKTSWKFSLDPSGNCDNYHSFTNCSMANHCVQFKDGKLFTCTFPAHVQHFNKKYGNHFEVCEFDFIDIYKAKDYQEILFFLSKPIPFCRYCKVSQWAEIGKWRSSNKTKHEYLI	not soluble
MGSDKIHHHHHHMQVLVVDYTAKDAAEKFVQSLHETGFAVLVNHPIKQSLVESIYKNWQEFFLSEEKHAFAFDPVKQDGYFSSEISETAKGHSKKDIKEYFHVYPWGRIPAQLNDEIFEYYRLASELAAELLDWVEEYSPADIADKYSETLSNMIKETPNTLLRILHYPPLTGNEEAGAVRAASHEDINLLTILPAANEPGLQVQRQNGEWIDVPSDFGNLIINIGDMLQETSAGYFPSTSHRVINPTGKGSDKSRISLPLFLHPRSEVVLSDKHTQASYLLERLRELGVKV	not soluble
MGSDKIHHHHHHMRALSFIFIALILVGCNEPAKEITKPIRPIMWTKVKISPFEQIRTLSGIVAPVEATKLSFEVQGKIQTIEVNLGNEVVKGQELARLNQRNFNLGLQSAQAQYQQAKATLIDARNSHRRYEQLLKQGVVSQSGFDNAKATYDASKSAADVAQAQLDIASKNLQDSILLAPYDGIITKRLYEPSQQISAGQSLFEIEGKHGLEVHVMVPETLIRELRQLSILPIHFPVLPELTMQGQITEIGTRAEYANAFPVTAVLEGDNPLLRAGMTAEVDFSFSGTGRTGHTGDVFRIPATALSAGLEQKAYVFVYNPDSQQVIKTQVQTENIFKNEVFISSGLKQGDIIAIAGVAFLRDGQQVSLTDNNVQRFN	not soluble
